Measurements as given in article doi:10.1101/2020.09.10.291773 (bioRxiv, 2020).

Biological target: T1, HY5-S36A-GFP (Arabidopsis, UniProt O24646 1-168, S36A)
T1 sequence (looked up): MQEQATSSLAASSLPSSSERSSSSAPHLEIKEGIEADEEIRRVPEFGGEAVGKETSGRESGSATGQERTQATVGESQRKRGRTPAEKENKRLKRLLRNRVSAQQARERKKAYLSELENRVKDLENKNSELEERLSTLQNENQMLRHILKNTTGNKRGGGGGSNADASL
Assay: co-IP

B1: COP1 (CONSTITUTIVE PHOTOMORPHOGENIC1), endogenous (natural protein, Arabidopsis (endogenous in seedlings), UniProt P43254 1-675, looked up)
chain: MEEISTDPVVPAVKPDPRTSSVGEGANRHENDDGGSGGSEIGAPDLDKDLLCPICMQIIKDAFLTACGHSFCYMCIITHLRNKSDCPCCSQHLTNNQLYPNFLLDKLLKKTSARHVSKTASPLDQFREALQRGCDVSIKEVDNLLTLLAERKRKMEQEEAERNMQILLDFLHCLRKQKVDELNEVQTDLQYIKEDINAVERHRIDLYRARDRYSVKLRMLGDDPSTRNAWPHEKNQIGFNSNSLSIRGGNFVGNYQNKKVEGKAQGSSHGLPKKDALSGSDSQSLNQSTVSMARKKRIHAQFNDLQECYLQKRRQLADQPNSKQENDKSVVRREGYSNGLADFQSVLTTFTRYSRLRVIAEIRHGDIFHSANIVSSIEFDRDDELFATAGVSRCIKVFDFSSVVNEPADMQCPIVEMSTRSKLSCLSWNKHEKNHIASSDYEGIVTVWDVTTRQSLMEYEEHEKRAWSVDFSRTEPSMLVSGSDDCKVKVWCTRQEASVINIDMKANICCVKYNPGSSNYIAVGSADHHIHYYDLRNISQPLHVFSGHKKAVSYVKFLSNNELASASTDSTLRLWDVKDNLPVRTFRGHTNEKNFVGLTVNSEYLACGSETNEVYVYHKEITRPVTSHRFGSPDMDDAEEEAGSYFISAVCWKSDSPTMLTANSQGTIKVLVLAA
With B1 the “fold co-immunoprecipitated COP1 against the HY5-S36D-GFP line” value was 4 times.
